Key:
MiEH2 [1] = biological target: T1, MiEH2 (Mangifera indica, UniProt A0A1U9ZCB5); assay: MiEH2 activity assay and enzyme kinetics with epoxide substrates (HRMS); type: biochemical; conditions: for product formation by MiEH2 with substrate (HRMS extracted ion chromatogram): 200 μM substrate, pH 7.0, 30° C., FIG. 3; for Vmax: recombinant MiEH2, substrate kinetics
T1 sequence (A0A1U9ZCB5 1-318): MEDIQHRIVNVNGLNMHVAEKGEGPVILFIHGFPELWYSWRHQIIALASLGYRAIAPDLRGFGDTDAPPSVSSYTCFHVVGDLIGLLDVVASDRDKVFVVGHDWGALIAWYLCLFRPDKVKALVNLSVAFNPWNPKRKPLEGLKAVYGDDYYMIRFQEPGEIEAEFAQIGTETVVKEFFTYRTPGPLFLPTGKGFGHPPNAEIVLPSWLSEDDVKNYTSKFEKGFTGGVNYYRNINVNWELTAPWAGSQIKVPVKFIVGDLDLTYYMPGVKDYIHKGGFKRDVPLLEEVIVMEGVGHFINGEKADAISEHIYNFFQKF
Procedure: (§1) Similar activity assays were carried out with protein expressed from empty vector for confirmation of EH2 activity. Optimum pH was determined by calculating activity at varied range of pH in phosphate citrate buffer at 30° C., whereas temperature optima was determined by calculating MiEH2 activity in phosphate citrate buffer pH 7 at various temperatures. After incubation and catalytic activity of EH 2, products were extracted in chloroform:methanol (2:1); completely dried in vacuum evaporator and reconstituted in the methanol. HRMS analysis carried out by accurate mass (molecular ion) identification. […] Extracted compounds from CSO and TSO assay reactions were separated by water (A):methanol (B) solvent gradient, 0-1 min 80% (A)/20% (B); 1-2 min 60% (A)/40% (B); 2-4 min 40% (A)/60% (B); 4-11 min 20% (A)/80% (B); 11-16 min 0% (A)/100% (B), hold for 2 min and again back to 80% (A)/20% (B) in 3 min with 2 min hold at flow rate 500 μl min^−1. […] Quantitative analysis of CSO and TSO assay products was done by plotting standard graph of product standards. Full scans for both programs were acquired on positive ion mode with AGC target value of 1E6, resolution of 70,000 at scan range 100-500 m/z, and maximum ion injection time (IT) of 250 ms.

[2] = substrate: c1ccc([C@H]2O[C@@H]2c2ccccc2)cc1; assay: as above; type: biochemical, Mangifera indica; conditions: other: recombinant MiEH2, substrate kinetics; pH 7.0
Procedure: as §1

[3] = substrate: c1ccc([C@H]2O[C@H]2c2ccccc2)cc1; assay: as above; type: biochemical, Mangifera indica; conditions: other: recombinant MiEH2, substrate kinetics; pH 7.0
Procedure: as §1

[4] = tested on: ethylene treated mango fruits; assay: Transient over expression of SEQ ID No. 1 (MiEH2) in mango fruits via agroinfiltration, lactone content by GC-FID; type: in vivo, Mangifera indica
Procedure: The full length sequence of MiEH2, i.e. SEQ ID No. 1 was cloned in a pBI121 plant expression vector between CaMV 35S promoter and GusA gene. Terminal primers were designed (Table 1A) to clone genes at BamHI restriction site. Resulted correct oriented construct pBI121+SEQ ID No. 1 and pBI121 empty vector as control were transformed in the Agrobacterium GV3101 strain for transient expression studies. Separate Agrobacterium cultures (5 mL) were initiated from individual colonies in YEB medium having appropriate antibiotics and incubated overnight at 28° C. This culture was transferred to 50 mL induction medium comprising 0.5% beef extract, 0.1% yeast extract, 0.5% peptone, 0.5% sucrose, 2 mM MgSO4, […] acetosyringone, 10 mM MES, pH 5.6, having appropriate antibiotics, and again grown overnight. Cultures were recovered by centrifugation on the next day, resuspended in infiltration medium (10 mM MgCl2, 10 mM MES, […] acetosyringone, pH 5.6) till optical density reached 1.0. This suspension was again incubated at 28° C. with gentle agitation for 2 hrs.
Over expression studies for EH2 were carried out by Agrobacterium mediated infiltration in ethylene treated mango fruits at 3DAH stage by using hypodermic syringe. Equal volumes of said constructs i.e. pBI121+MiEH2 and pBI121 empty vector construct were used for infiltration in two different halves of same mango fruit separated by fruit stone. […] Thus control (empty vector) and test over expressions were carried out in same fruit to avoid error in lactone content analysis. Five distinct mango fruits were used for overexpression study of MiEH2. Infiltrated fruits were kept at 25° C. for 2 days in 12 hr dark and 12 hr light conditions, after 2 days; part from each fruit halves was checked by Gus staining (Kapila et al. 1997; Spolaore et al. 2001) to confirm expression of MiEH2 under 35S promoter along with GusA, remaining part of fruit pulp stored in −80° C. until used for lactone analysis by gas chromatography. […] Lactones were analysed from control and test region of fruits. A total of 8 lactones viz. γ-butyrolactone, δ-valerolactone, γ-hexalactone, δ-hexalactone, γ-octalactone, γ-octalactone, γ-decalactone and δ-decalactone were detected from all tissues in GC-MS analysis.
GC-MSD and GC-FID analysis for lactones was carried out using a 7890B GC system Agilent Technologies coupled with Agilent 5977A MSD (Agilent technologies, CA, USA). […] To understand effect of gene over expression by transient expression on lactone biosynthesis, qualitative and quantitative analysis for lactones alone was carried out in the present study. […] Absolute quantification was done using internal standard by normalizing concentrations of all the lactones with that of known concentration of nonyl acetate.

MiEH2 [5] = biological target: T1, MiEH2; assay: Optimum pH and temperature of MiEH2 activity; type: biochemical
Procedure: Similar activity assays were carried out with protein expressed from empty vector for confirmation of EH2 activity. Optimum pH was determined by calculating activity at varied range of pH in phosphate citrate buffer at 30° C., whereas temperature optima was determined by calculating MiEH2 activity in phosphate citrate buffer pH 7 at various temperatures. After incubation and catalytic activity of EH 2, products were extracted in chloroform:methanol (2:1); completely dried in vacuum evaporator and reconstituted in the methanol. HRMS analysis carried out by accurate mass (molecular ion) identification. Identified products from assay reaction were confirmed with mass and retention time indices of authentic standards R,R hydrobenzoin and meso hydro benzoin. Extracted compounds from CSO and TSO assay reactions were separated by water (A):methanol (B) solvent gradient, 0-1 min 80% (A)/20% (B); 1-2 min 60% (A)/40% (B); 2-4 min 40% (A)/60% (B); 4-11 min 20% (A)/80% (B); 11-16 min 0% (A)/100% (B), hold for 2 min and again back to 80% (A)/20% (B) in 3 min with 2 min hold at flow rate 500 μl min^−1. […] Quantitative analysis of CSO and TSO assay products was done by plotting standard graph of product standards. Full scans for both programs were acquired on positive ion mode with AGC target value of 1E6, resolution of 70,000 at scan range 100-500 m/z, and maximum ion injection time (IT) of 250 ms.

[6] = pBI121+SEQ ID No. 1 vs empty pBI121 vector in same fruit, 2 days post infiltration

c1ccc([C@H]2O[C@H]2c2ccccc2)cc1 [CSO, cis-stilbene oxide]
product formation by MiEH2 with substrate (HRMS extracted ion chromatogram) (MiEH2 [1]): product formation
Vmax (MiEH2 [1]): CSO- 26.5252 ± 4.81 μM min^−1mg^−1

c1ccc([C@H]2O[C@@H]2c2ccccc2)cc1 (relative stereo) [TSO, trans-stilbene oxide]
product formation by MiEH2 with substrate (HRMS extracted ion chromatogram) (MiEH2 [1]): product formation
Vmax (MiEH2 [1]): TSO- 1055.55 ± 55.55 μM min^−1mg^−1

B1: MiEH2 (Mangifera indica) (protein)
chain: T1 sequence (A0A1U9ZCB5 1-318)
Km [2]: TSO- 0.113 ± 0.003 mM
Km [3]: CSO- 0.165 ± 0.044 mM

B2: SEQ ID No. 1: 957 bp polynucleotide encoding epoxide hydrolase 2, cloned in pBI121 plant expression vector, agroinfiltrated in mango (nucleic acid)
DNA: ATGGAAGATATACAGCACAGAATTGTGAATGTCAATGGCTTAAACATGCACGTGGCAGAGAAAGGCGAAGGTCCAGTCATTCTCTTCATTCACGGTTTTCCCGAACTGTGGTACTCCTGGCGGCATCAGATCATCGCCTTGGCTTCCCTCGGCTACCGAGCCATTGCTCCGGATCTACGTGGCTTCGGTGATACTGACGCGCCGCCGTCTGTCTCGAGTTACACGTGTTTCCACGTGGTGGGGGACCTCATTGGACTTCTCGACGTCGTTGCCTCTGATCGGGATAAGGTTTTCGTGGTGGGCCATGATTGGGGTGCTCTTATTGCTTGGTACTTGTGCTTGTTTAGACCGGATAAGGTCAAAGCTTTGGTCAACTTGAGTGTTGCGTTTAATCCCTGGAACCCCAAGAGGAAGCCACTTGAGGGTTTGAAAGCTGTTTATGGTGACGATTATTACATGATCAGATTTCAGGAGCCTGGTGAGATAGAAGCTGAGTTTGCCCAGATTGGTACTGAGACAGTTGTCAAGGAATTCTTTACATACAGGACACCTGGTCCTCTTTTTCTCCCTACAGGTAAAGGATTTGGACATCCCCCAAATGCTGAAATTGTCTTACCCTCTTGGCTATCAGAGGATGATGTTAAAAACTACACCAGCAAATTTGAGAAAGGCTTTACAGGAGGAGTGAACTATTACCGTAATATAAACGTGAACTGGGAACTTACAGCTCCTTGGGCCGGGAGTCAAATAAAGGTTCCTGTTAAGTTCATCGTGGGTGACCTGGACCTGACATATTATATGCCAGGAGTCAAGGATTACATACACAAAGGTGGGTTCAAGCGAGATGTGCCATTATTGGAAGAAGTGATTGTAATGGAAGGTGTAGGTCACTTCATTAATGGAGAAAAGGCTGATGCAATCAGTGAGCACATATACAACTTTTTTCAGAAGTTCTGA
modifications: cDNA
notes: 957 bp polynucleotide encoding epoxide hydrolase 2, cloned in pBI121 plant expression vector, agroinfiltrated in mango
lactone content on transient over expression ([4]; Alphonso mango): significant increase
increase in γ-hexalactone content compared to control tissue [4, 6]: 1.96 fold
increase in δ-hexalactone content compared to control tissue [4, 6]: 1.98 fold
increase in δ-valerolactone content compared to control tissue [4, 6]: 1.46 fold

B3: MiEH2: recombinant epoxide hydrolase 2 polypeptide of Mangifera indica, 318 amino acids, 6×His tagged (protein, listed as Mangifera indica)
chain: T1 sequence (A0A1U9ZCB5 1-318)
modifications: 6xHis tag
notes: recombinant epoxide hydrolase 2 polypeptide of Mangifera indica, 318 amino acids, 6×His tagged
Optimum temperature (MiEH2 [5]; phosphate citrate buffer pH 7, various temperatures): 45 °C
Optimum pH (MiEH2 [5]; phosphate citrate buffer, 30° C., varied pH): 8
